Measurements published in paper PMC5306213, “Common Distribution of gad Operon in Lactobacillus brevis and its GadA Contributes to Efficient GABA Synthesis toward Cytosolic Near-Neutral pH” (Frontiers in Microbiology, 2017).

Legend:
[1] = substrate: N[C@@H](CCC(=O)O)C(=O)O; assay: glutamate decarboxylation assay, Michaelis-Menten fit; type: biochemical, Levilactobacillus brevis; conditions: pH 4.8, 45 °C, sulfate buffer (0.8 M sodium sulfate, 50 mM sodium acetate), PLP, glutamate 0.9-36 mM
Text: glutamate decarboxylation assay, Michaelis-Menten fit on Lb. brevis GadA (WT)

[2] = substrate: N[C@@H](CCC(=O)O)C(=O)O; assay: as above; type: biochemical, Lactiplantibacillus plantarum; conditions: pH 4.8, 60 °C, McIlvaine (citrate-phosphate) buffer, PLP, glutamate 0.9-36 mM
Text: glutamate decarboxylation assay, Michaelis-Menten fit on Lb. plantarum GadB

Protein	Km [1] [mM]	Vmax [1] [µmol/min/mg]	kcat [1] [s⁻¹]	kcat/Km [1] [M⁻¹ s⁻¹]	Km [2] [mM]	Vmax [2] [µmol/min/mg]	kcat [2] [s⁻¹]	kcat/Km [2] [M⁻¹ s⁻¹]
Lb. brevis GadA (WT) (Levilactobacillus brevis ATCC 367) (protein, recombinant in E. coli from pRSETA-SUMO with N-terminal His-SUMO tag (tag removal told only in supplement); native N-terminus MNKNDQET (from primer); tetramer per cited work) MNKNDQETQQMINNVDLEKTFLGSVEAGQSLPTNTLPDDPMAPDVAAQLVEHYRLNEAKANQNLATFCTTQMEPQADELMKNALNTNAIDKSEYPKTAAMENYCVSMIAHLWGIPDNEKIYDDFIGTSTVGSSEGCMLGGLALLHSWKHRAKAAGFDIEDLHSHKPNLVIMSGYQVVWEKFCTYWNVEMRQVPINGDQVSLDMDHVMDYVDENTIGIIGIEGITYTGSVDDIQTLDNLVTEYNKTATMPVRIHVDAAFGGLFAPFVDGFNPWDFRLKNVVSINVSGHKYGMVYPGLGWIVWRHNTADILPAEMRFQVPYLGKTVDSIAINFSHSGAHISAQYYNFIRFGLSGYKTIMQNVRKVSLKLTAALKTYGIFDILVDGSQLPINCWKLADDAPVGWTLYDLESELAKYGWQVPAYPLPKNRDDVTISRIVVRPSMTMTIADDFLDDLKLAIDGLNHTFGVTTTVDQDNKTTVRS	26.95 ± 2.437	9.16	8.17 ± 0.405	303	–	–	–	–
Lb. plantarum GadB (Lactiplantibacillus plantarum WCFS1) (protein, recombinant in E. coli from pET-28a(+), +GSHM at N-terminus (left after tag cleavage, details in supplement); start MAMLYGKH (from primer); about 54 kDa from kcat/Vmax; dimer per cited work) MAMLYGKHNHEAEEYLEPVFGAPSEQHDLPKYRLPKHSLSPREADRLVRDELLDEGNSRLNLATFCQTYMEPEAVELMKDTLAKNAIDKSEYPRTAEIENRCVNIIANLWHAPDDEHFTGTSTIGSSEACMLGGLAMKFAWRKRAQAAGLDLNAHRPNLVISAGYQVCWEKFCVYWDVDMHVVPMDEQHMALDVNHVLDYVDEYTIGIVGIMGITYTGQYDDLAALDKVVTHYNHQHPKLPVYIHVDAASGGFYTPFIEPQLIWDFRLANVVSINASGHKYGLVYPGVGWVVWRDRQFLPPELVFKVSYLGGELPTMAINFSHSAAQLIGQYYNFIRFGMDGYREIQTKTHDVARYLAAALDKVGEFKMINNGHQLPLICYQLASREDREWTLYDLSDRLLMNGWQVPTYPLPANLEQQVIQRIVVRADFGMNMAHDFMDDLTKAVHDLNHAHIVYHHDAAPKKYGFTH	–	–	–	–	20.02 ± 2.557	73.3	65.9 ± 4.2	3290
